# Test results from publication PMC4570213.
# Target: SP1 (endogenous, PIG1 nuclear extract) (UniProt P08047)
# Assay: EMSA, supershift
# Conditions: 10 ug PIG1 nuclear extract, 300 fmol biotin probe, 1.5 ug poly(dI-dC), kit binding buffer (LightShift; composition, salt and pH not given), 15 ul, 20 min room …
# SP1 (endogenous, PIG1 nuclear extract), sequence (P08047 whole entry): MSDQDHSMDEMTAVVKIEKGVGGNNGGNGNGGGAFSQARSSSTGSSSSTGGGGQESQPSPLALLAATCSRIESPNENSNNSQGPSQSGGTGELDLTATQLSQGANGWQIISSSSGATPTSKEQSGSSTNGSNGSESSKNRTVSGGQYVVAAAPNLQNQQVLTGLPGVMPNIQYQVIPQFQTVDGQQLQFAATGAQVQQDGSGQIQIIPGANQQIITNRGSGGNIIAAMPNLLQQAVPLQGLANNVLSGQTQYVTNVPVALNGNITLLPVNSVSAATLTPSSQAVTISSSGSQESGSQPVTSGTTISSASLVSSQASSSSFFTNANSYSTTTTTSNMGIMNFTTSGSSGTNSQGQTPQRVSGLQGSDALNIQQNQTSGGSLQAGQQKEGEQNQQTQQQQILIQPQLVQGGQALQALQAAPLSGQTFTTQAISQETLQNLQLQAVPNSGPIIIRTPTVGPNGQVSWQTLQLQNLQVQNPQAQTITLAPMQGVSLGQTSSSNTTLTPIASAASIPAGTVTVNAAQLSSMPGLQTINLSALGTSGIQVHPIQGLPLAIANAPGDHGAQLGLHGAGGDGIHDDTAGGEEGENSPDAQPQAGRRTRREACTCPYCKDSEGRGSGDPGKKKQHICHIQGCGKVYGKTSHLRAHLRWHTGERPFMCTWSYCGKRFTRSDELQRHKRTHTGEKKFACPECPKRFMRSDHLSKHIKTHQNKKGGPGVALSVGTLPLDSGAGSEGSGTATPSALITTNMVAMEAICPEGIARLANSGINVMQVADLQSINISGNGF
row,Sequence,binding signal (% of -129C band)
1,AAGATGGAATGGAATCCAGATGGGCGGGGG (double strand) [AHR promoter -129T probe],> 100
2,AAGACGGAATGGAATCCAGATGGGCGGGGG (double strand) [AHR promoter -129C probe],100
